± gives the uncertainty stated by the source.

The record followed here is the supplement of paper PMC7877785.

The series in a line: self-splicing fitness, log relative to wild type (ln ratio); higher = more splicing; Tetrahymena group I intron in knt gene, E. coli kanamycin selection, DiMSum; sequences stand for … in CUCUCU…GGAGGGAAAAGUUAUCAGGCAUGCACCUGGUAGCUAGUCUUUAAACCAAUAGAUUGCAUCGGUUUAAAAGGCAAGACCGUCAAAUUGCGGGAAAGGGGUCAACAGCCGUUCAGUACCAAGUCUCAGGGGAAACUUUGAGAUGGCCUUGCAAAGGGUAUGGUAAUAAGCUGACGGACAUGGUCCUAACCACGCAGCCAAGUCCUAAGUCAACAGAUCUUCUGUUGAUAUGGAUGCAGUUCACAGACUAAAUGUCGGUCGGGGAAGAUGUAUUCUUCUCAUAAGAUAUAGUCGGACCUCUCCUUAAUGGGAGCUAGCGGAUGAAGUGAUGCAACACUGGAGCCGCUGGGAACUAAUUUGUAUGCGAAAGUAUAUUGAUUAGUUUUGGAGUACUCGUGGUCG
In a few lines: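 Six replicate transformations of E. coli BL21(DE3) with a pET-22b(+) library were grown overnight at 37°C or 30°C. The library randomised all eight P1ex-region intron nucleotides, the intron lying in the knt kanamycin-resistance gene, and plates were LB agar with or without 25 μg/mL kanamycin plus 100 μg/mL carbenicillin, 50 μM IPTG and 0.2% rhamnose. Pooled colonies were amplicon-sequenced on an Illumina HiSeq 2500, and fitness is the DiMSum error-weighted combination of wild-type-normalised replicate fold changes, kanamycin versus none.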

For the sequence UUAGAGCAAUAUUACGGGAC, the “self-splicing fitness (ln)” value reads like this: (30 °C) -3.75 ± 0.36; (37 °C) -2.8 ± 0.22.
With UUAGAGCAAUAUUACGUGCU, the “self-splicing fitness (ln)” value (37 °C) is -1.79 ± 0.4.
As for UUAGAGCAAUAUUACGUGGU, the “self-splicing fitness (ln)” value was -3.98 ± 0.43 (30 °C) and -2.61 ± 0.39 (37 °C).
Take UUAGAGCAAUAUUACGUUGU: the “self-splicing fitness (ln)” value runs as follows: (30 °C) -4.16 ± 0.31; (37 °C) -2.4 ± 0.19.
Regarding UUAUAGCAAUAUUACGAAGA, the “self-splicing fitness (ln)” value (37 °C) was -1.99 ± 0.32.
As for UUAUAGCAAUAUUACGACCA, the “self-splicing fitness (ln)” value by setting is: (30 °C) -0.882 ± 0.2; (37 °C) -0.384 ± 0.21.
For UUAUAGCAAUAUUACGAGCU, the “self-splicing fitness (ln)” value (37 °C) was -2.16 ± 0.26.
On to UUAUAGCAAUAUUACGAUGG, for which the “self-splicing fitness (ln)” value is -1.24 ± 0.1 (30 °C) and -0.128 ± 0.14 (37 °C).
For UUAUAGCAAUAUUACGCAGC, the “self-splicing fitness (ln)” value runs as follows: (30 °C) -3.44 ± 0.31; (37 °C) -2.49 ± 0.45.
In the same order, the values of UUAUAGCAAUAUUACGCAGG are -1.06 ± 0.13 and -0.791 ± 0.16.
In the same order, the values of UUAUAGCAAUAUUACGCCGG are -0.862 ± 0.19 and -0.599 ± 0.32.
In the same order, the values of UUAUAGCAAUAUUACGCCUG are -0.833 ± 0.4 and -0.933 ± 0.37.
Take UUAUAGCAAUAUUACGCGCG: the “self-splicing fitness (ln)” value was 0.0634 ± 0.16 (30 °C) and -0.475 ± 0.18 (37 °C).
As to UUAUAGCAAUAUUACGCGUC, the “self-splicing fitness (ln)” value (37 °C) was -1.11 ± 0.41.
Take UUAUAGCAAUAUUACGCUGU: the “self-splicing fitness (ln)” value runs as follows: (30 °C) -3.59 ± 0.37; (37 °C) -1.06 ± 0.37.
In the same order, the values of UUAUAGCAAUAUUACGCUUA are -1.92 ± 0.33 and -1.09 ± 0.26.
UUAUAGCAAUAUUACGCUUU: the “self-splicing fitness (ln)” value (30 °C) is -2.99 ± 0.28 and the “self-splicing fitness (ln)” value (37 °C) was -2.6 ± 0.26.
In the same order, the values of UUAUAGCAAUAUUACGGACA are -1.66 ± 0.14 and -0.61 ± 0.12.
Turning to UUAUAGCAAUAUUACGGAUC, under “30 °C”, the “self-splicing fitness (ln)” value was -3.02 ± 0.45.
Take UUAUAGCAAUAUUACGGCAU: the “self-splicing fitness (ln)” value runs as follows: (30 °C) -2.47 ± 0.18; (37 °C) -2.3 ± 0.25.
As for UUAUAGCAAUAUUACGGCGA, the “self-splicing fitness (ln)” value by setting is: (30 °C) -1.38 ± 0.14; (37 °C) -0.219 ± 0.18.
In the same order, the values of UUAUAGCAAUAUUACGGGCA are -2.37 ± 0.18 and -1.32 ± 0.19.
In the same order, the values of UUAUAGCAAUAUUACGGUAC are -2.88 ± 0.28 and -2.45 ± 0.41.
In the same order, the values of UUAUAGCAAUAUUACGGUAG are -1.38 ± 0.14 and -0.483 ± 0.14.
As for UUAUAGCAAUAUUACGGUCC, the “self-splicing fitness (ln)” value by setting is: (30 °C) -2.8 ± 0.21; (37 °C) -2.93 ± 0.29.
In the same order, the values of UUAUAGCAAUAUUACGUCAA are -1.61 ± 0.26 and -0.961 ± 0.22.
In the same order, the values of UUAUAGCAAUAUUACGUGUA are -2.46 ± 0.18 and -1.73 ± 0.16.
In the same order, the values of UUAUAGCAAUAUUACGUGUG are -1.63 ± 0.083 and -0.419 ± 0.098.
Regarding UUCAAGCAAUAUUACGAACG, the “self-splicing fitness (ln)” value (30 °C) is -4.29 ± 0.36 and the “self-splicing fitness (ln)” value (37 °C) was -2.46 ± 0.25.
Consider UUCAAGCAAUAUUACGAAGG, for which the “self-splicing fitness (ln)” value was -4.7 ± 0.41 (30 °C) and -2.95 ± 0.26 (37 °C).
On to UUCAAGCAAUAUUACGAAGU, for which the “self-splicing fitness (ln)” value is, setting by setting: (30 °C) -3.76 ± 0.37; (37 °C) -0.849 ± 0.23.
Take UUCAAGCAAUAUUACGACGU: the “self-splicing fitness (ln)” value by setting is: (30 °C) -0.831 ± 0.094; (37 °C) 0.325 ± 0.13.
For the sequence UUCAAGCAAUAUUACGACUU, the “self-splicing fitness (ln)” value is -3.86 ± 0.15 (30 °C) and -2.65 ± 0.18 (37 °C).
As to UUCAAGCAAUAUUACGAUGC, the “self-splicing fitness (ln)” value was -3.39 ± 0.45 (30 °C) and -1.85 ± 0.28 (37 °C).
In the same order, the values of UUCAAGCAAUAUUACGCAGA are -3.11 ± 0.35 and -1.91 ± 0.2.
